Results published in patent publication US7202329 (MYRIAD GENETICS, dated 2007).

Experiments:
[1] = molecular target: T1, mitotic spindle coiled-coil related protein (aa 723-1012) (UniProt Q96R06 723-1012); experiment: yeast two-hybrid
T1 construct: range 723-1012
T1 sequence (looked up): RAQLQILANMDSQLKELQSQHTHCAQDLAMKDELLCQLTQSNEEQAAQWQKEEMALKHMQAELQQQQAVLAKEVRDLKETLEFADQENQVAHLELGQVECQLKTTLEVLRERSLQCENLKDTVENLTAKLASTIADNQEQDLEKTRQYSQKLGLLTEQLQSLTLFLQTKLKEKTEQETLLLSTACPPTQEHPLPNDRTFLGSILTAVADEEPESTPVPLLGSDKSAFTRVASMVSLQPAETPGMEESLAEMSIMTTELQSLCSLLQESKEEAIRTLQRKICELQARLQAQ

[2] = molecular target: T2, GTPase-activating protein 1 (aa 1392-1657) (UniProt P46940 1392-1657); experiment: yeast two-hybrid
T2 construct: range 1392-1657; also called IQGAP1; IQGAP
T2 sequence (looked up): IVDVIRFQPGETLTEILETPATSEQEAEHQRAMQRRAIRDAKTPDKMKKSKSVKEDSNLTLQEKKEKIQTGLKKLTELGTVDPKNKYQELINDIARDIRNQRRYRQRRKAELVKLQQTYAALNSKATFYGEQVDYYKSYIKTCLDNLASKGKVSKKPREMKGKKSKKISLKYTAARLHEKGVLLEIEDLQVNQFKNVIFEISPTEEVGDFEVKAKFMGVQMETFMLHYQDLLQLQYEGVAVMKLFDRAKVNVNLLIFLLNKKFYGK

[3] = molecular target: T3, GTPase-activating protein 1 (aa 1299-1555) (UniProt P46940 1299-1555); experiment: yeast two-hybrid
T3 construct: range 1299-1555; also called IQGAP1; IQGAP
T3 sequence (looked up): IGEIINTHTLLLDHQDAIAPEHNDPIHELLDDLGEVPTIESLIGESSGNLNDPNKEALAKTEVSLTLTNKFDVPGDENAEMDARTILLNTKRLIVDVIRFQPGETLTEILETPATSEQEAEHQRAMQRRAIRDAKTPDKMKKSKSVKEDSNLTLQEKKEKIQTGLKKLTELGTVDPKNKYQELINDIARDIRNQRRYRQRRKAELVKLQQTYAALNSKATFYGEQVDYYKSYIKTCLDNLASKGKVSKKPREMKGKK

[4] = molecular target: T4, GTPase-activating protein 1 (aa 1413-1567) (UniProt P46940 1413-1567); experiment: yeast two-hybrid
T4 construct: range 1413-1567; also called IQGAP1; IQGAP
T4 sequence (looked up): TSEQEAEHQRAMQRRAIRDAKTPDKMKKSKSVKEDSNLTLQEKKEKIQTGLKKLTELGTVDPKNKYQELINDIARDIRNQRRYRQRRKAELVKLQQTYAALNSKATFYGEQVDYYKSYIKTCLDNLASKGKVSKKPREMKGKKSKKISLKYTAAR

[5] = molecular target: T5, catenin, GenBank U96136 (aa 684-1148) (UniProt Q9UQB3 684-1148); experiment: yeast two-hybrid
T5 construct: range 684-1148
T5 sequence (looked up): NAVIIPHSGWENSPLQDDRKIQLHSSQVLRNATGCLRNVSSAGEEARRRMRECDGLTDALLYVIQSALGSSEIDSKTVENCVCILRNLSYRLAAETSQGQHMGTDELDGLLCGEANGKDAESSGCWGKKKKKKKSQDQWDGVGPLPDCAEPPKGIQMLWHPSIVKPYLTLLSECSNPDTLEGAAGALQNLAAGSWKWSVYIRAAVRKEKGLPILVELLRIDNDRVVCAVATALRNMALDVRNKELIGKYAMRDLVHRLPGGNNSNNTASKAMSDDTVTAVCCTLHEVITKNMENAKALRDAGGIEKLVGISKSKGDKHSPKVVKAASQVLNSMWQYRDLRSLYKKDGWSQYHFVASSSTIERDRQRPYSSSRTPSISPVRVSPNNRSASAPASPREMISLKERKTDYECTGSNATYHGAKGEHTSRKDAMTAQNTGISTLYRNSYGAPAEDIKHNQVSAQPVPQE

[6] = molecular target: T6, GTPase-activating protein 1 (aa 1308-1606) (UniProt P46940 1308-1606); experiment: yeast two-hybrid
T6 construct: range 1308-1606; also called IQGAP1; IQGAP
T6 sequence (looked up): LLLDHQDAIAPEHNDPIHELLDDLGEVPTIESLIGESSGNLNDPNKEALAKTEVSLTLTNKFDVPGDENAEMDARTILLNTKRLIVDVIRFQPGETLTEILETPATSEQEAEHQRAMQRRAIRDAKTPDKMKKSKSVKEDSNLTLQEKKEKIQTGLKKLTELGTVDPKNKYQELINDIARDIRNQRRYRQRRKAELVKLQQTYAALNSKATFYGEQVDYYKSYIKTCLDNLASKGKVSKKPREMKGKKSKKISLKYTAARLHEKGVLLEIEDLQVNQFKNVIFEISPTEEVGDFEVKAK

[7] = molecular target: T7, VPS28 protein (aa 27-221) (human, UniProt Q9UK41 27-221); experiment: yeast two-hybrid, breast and prostate cancer library, bait Tsg101 240-391
T7 sequence (looked up): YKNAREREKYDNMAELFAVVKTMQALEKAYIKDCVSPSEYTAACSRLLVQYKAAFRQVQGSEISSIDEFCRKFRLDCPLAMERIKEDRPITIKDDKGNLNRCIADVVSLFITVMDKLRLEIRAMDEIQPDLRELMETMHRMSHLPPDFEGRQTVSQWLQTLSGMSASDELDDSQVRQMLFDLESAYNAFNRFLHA

Measured: binding result

B1: Tsg101 (aa 240-391) (other, human, UniProt Q99816 240-390, looked up)
chain: WRMKEEMDRAQAELNALKRTEEDLKKGHQKLEEMVTRLDQEVAEVDKNIELLKKKDEELSSALEKMENQSENNDIDEVIIPTAPLYKQILNLYAEENAIEDTIFYLGEALRRGVIDLDVFLKHVRLLSRKQFQLRALMQKARKTAGLSDLY
notes: range 240-391; also called C-terminal fragment of Tsg101; amino acid residues 240-390
binds: all assays above
